{"source": "the DeepSol protein solubility set", "data": [{"assay": "soluble on expression in E. coli; label from the status in PepcDB or PDB records", "values": [{"sequence": "MEFFGESWKKHLSGEFGKPYFIKLMGFVAEERKHYTVYPPPHQVFTWTQMCDIKDVKVVILGQNPYHGPNQAHGLCFSVQRPVPPPPSLENIYKELSTDIEDFVHPGHGDLSGWAKQGVLLLNAVLTVRAHQANSHKERGWEQFTDAVVSWLNQNSNGLVFLLWGSYAQKKGSAIDRKRHHVLQTAHPSPRSVYRGFFGCRHFSKTNELLQKSGKKPIDWKEL", "soluble on expression in E. coli": "soluble"}, {"sequence": "MQPSFRIVADGTDVTQRLNDRLLKLTLLDKPGMESDSLTLRIDDRDGQVALPRRGAVLEVHLGYAGEPLMRMGRFTVDTLQWAGPPDCLTVTAKAGDMRGSGKTIRSGGWEGTTLAQVCRDVGARNGWRVECPLQVAIARVDQVNESDYHFVTRLARQYDCTAKLAEGMLMVLPRQSGQSATGRRIEPLVLGRADVGSFDVTFDDRSLMRTVKTRYQLPGSGEVKSVELKNPKAPATAMGEHVDRHLYTSRGEAEQAAKARLASFSRSSASVRLELPGRGDLFAERSLLLQGFKAGIDGEFLIDSVEHTYSSSGWTTVVQCNGGRGGKG", "soluble on expression in E. coli": "not soluble"}, {"sequence": "MSLKKATLKDIAEYFGVSISTVSRALSGKPGVSSELREKILEKAREIGYTPNLMALGLKKGNTRTVGVLIPELSANFFADIVSSIEKSLFHLGYRLILCSTDDDPVKEREHLQLLLDQKVEGILSAPVNVKENKDIYNSIINHFKIPVVFFDRLVEGVDSDFVISDNREGMEILVNYLVKHGHKKIGLIHPLRGSFTGEERLKGFLLFKDSIEIREEWIRDGRSSEQGGYESFLRIMTSQERPTAIVIGNNLMTLGVLKAAKELNIKIPEDISLVSFDDAYWNEIFDPPITCVRQDPQQIGLIAATILLDRMKNRKKPSPRMQVVLKVKFVERSSVRTIKTLKDEGHHHHHH", "soluble on expression in E. coli": "soluble"}, {"sequence": "MDRISQLSDDLLLQILSFIPGKDVVATSLLSKRWQSLWMLVSELEYDDSYHTGDYKSFSQFVYRSLLSNNAPVIKHLHLNLGPDCPAIDIGLWIGFALTRRLRQLKINIRTSSNDASFSLPSSLYTSDTLETLRLINFVLLDVPSSVCLPSLKVLHLKTVDYEDDASLPSLLFGCPNLEELFVERHDQDLEMDVTFVVPSLRRLSMIDKNYGQCDRYVIDVPSLKYLNITDDAVYDVRQIENMPELVEAHVDITQGVTHKFLRALTSVRQLSLCLSLSEKQHESGLCGIETPIGWKLPSSVPECLLFSLEAFEWIGYKGRRGDREVATYVLKNAACLRTAKFSPESTDVGEKYHMLKELASVPTASTSSKLLFD", "soluble on expression in E. coli": "soluble"}, {"sequence": "MGSDKIHHHHHHKLRDEGDAALKAKDYATVVTKYGEYLKQNNYQDTARIFNCGYAANQAKNYAEAAKYFDMAVKMNYNVDDSYVGEAMAYRNLNKTEEFLTTVKEGLKVIPDGNKNKTNLEKLLYGYCIKQGQAAQKKGDLAGAEKMYKEVLAVSNKDYQSNAYYSLGAMLYGNGAKILQAATPIATSEPDKYNAEKAKADKDFKQAKEYLTKAVELDPKDENSKKILASINDILK", "soluble on expression in E. coli": "not soluble"}, {"sequence": "MKSNEHDDCQVTNPSTGHLFDLSSLSGRAGFTAAYSEKGLVYMSICGENENCPPGVGACFGQTRISVGKANKRLRYVDQVLQLVYKDGSPCPSKSGLSYKSVISFVCRPEAGPTNRPMLISLDKQTCTLFFSWHTPLACEQATECSVRNGSSIVDLSPLIHRTGGYEAYDESEDDASDTNPDFYINICQPLNPMHAVPCPAGAAVCKVPIDGPPIDIGRVAGPPILNPIANEIYLNFESSTPCLADKHFNYTSLIAFHCKRGVSMGTPKLLRTSECDFVFEWETPVVCPDEVRMDGCTLTDEQLLYSFNLSSLSTSTFKVTRDSRTYSVGVCTFAVGPEQGGCKDGGVCLLSGTKGASFGRLQSMKLDYRHQDEAVVLSYVNGDRCPPETDDGVPCVFPFIFNGKSYEECIIESRAKLWCSTTADYDRDHEWGFCRHSNSYRTSSIIFKCDEDEDIGRPQVFSEVRGCDVTFEWKTKVVCPPKKLKHHHHHH", "soluble on expression in E. coli": "soluble"}, {"sequence": "MEKTLETVPLERKKREKEQFRKLFIGGLSFETTEESLRNYYEQWGKLTDCVVMRDPASKRSRGFGFVTFSSMAEVDAAMAARPHSIDGRVVEPKRAVAREESG", "soluble on expression in E. coli": "soluble"}, {"sequence": "SNRKKLQKLTDTLTKNCKHFNKFEVNCLIKLFYDLVGGVERQGLVVGLDRNAFRNILHVTFGMTDDMIMDRVFRGFDKDNDGCVNVLEWIHGLSLFLRGSLEEKMKYCFEVFDLNGDGFISKEEMFHMLKNSLLKQPSEEDPDEGIKDLVEITLKKMDHDHDGKLSFADYELAVREETLLLEAFGPCLPDPKSQMEFEAQVFKDPNEFNDM", "soluble on expression in E. coli": "soluble"}, {"sequence": "GPHMTQEEAVVNASLWEYVRLRESYDADTAQYAYDLVSNFSAPMVRQNYQQFFNYPNPTSPQVILGKHGRLEVEHIASNDVTPGVQQIRYKRTLIVDGKMPMASTWTATVRYEKVTSLPGRLRLTNPGGLVVTSYQTSEDTVSNAGHSEP", "soluble on expression in E. coli": "soluble"}, {"sequence": "MTAGLHHAAANGVRVRPFRRHPTKRYILTGAPGAGKTVLLRALETAGEVVVEEAATDVIALAQAQGVDQPWTDPGFIDTIVGLQRQRQTRAVGDRIFFDRSPVCALALARFLGHPVSALLEDELARIVREGVYQRRVFLVQGLGFITPTAARRISLDDAQAFEEVHQAAYTELGFELAPIAPGPVGDRVRRVLGAVLEHHHHHH", "soluble on expression in E. coli": "not soluble"}, {"sequence": "SLMAGLPNSSNALQQWHHLFEAEGTKRSPQAQQHLQQLLRTGLPTRKHENWKYTPLEGLINSQFVSIAGEISPQQRDALALTLDSVRLVFVDGRYVPALSDATEGSGYEVSINDDRQGLPDAIQAEVFLHLTESLAQSVTHIAVKRGQRPAKPLLLMHITQGVAGEEVNTAHYRHHLDLAEGAEATVIEHFVSLNDARHFTGARFTINVAANAHLQHIKLAFENPLSHHFAHNDLLLAEDATAFSHSFLLGGAVLRHNTSTQLNGENSTLRINSLAMPVKNEVCDTRTWLEHNKGFCNSRQLHKTIVSDKGRAVFNGLINVAQHAIKTDGQMTNNNLLMGKLAEVDTKPQLEIYADDVKCSHGATVGRIDDEQIFYLRSRGINQQDAQQMIIYAFAAELTEALRDEGLKQQVLARIGQRLPGGAREGGSHHHHHH", "soluble on expression in E. coli": "soluble"}, {"sequence": "MSALDPQASARVARTPDAEPEAVDASAAGESAGLIARLGRLFERDRLPPPADLAQLFEARLTDVRANKLAQAWRLAYEQADGKRRRAMLGGLAQVGAGMQGDGAQGTRLFKRFNALPDGLRFLVALRADMLRWRKQVAGLQALDKELEALLSAWFDVGLLELRPLTWDSPASLLEKLILYEAVHEIRSWDDLRHRVAGDRRCYAYFHPQMPDVPLIFVEVAFSAQMADNVQALLDTSAPPQDLDKARWAIFYSISNTQPGLRGISFGNFLLKRVIDRLLQELPKLKFFATLSPIPGFADWLSRLDAQEVEQAVRDKARTRSGAPDGARWVARLARAATGKPSEVVQRAGLRLAARYLQAMRAGQPLDPVARFHLGNGARIERLNWAADTSAKGLAQSCGMMVNYLYELGDLDGNLARLNEGKPQVSRGIARLGLEHHHHHH", "soluble on expression in E. coli": "not soluble"}, {"sequence": "LSITDCRGAPLYEFRYPQQFYATFASVPPLLVHSLLFIENRDLLDPQQPLANPAVDWPRFVKAAWSQVAKMFALPGQSAGGSTLATQLEKYRHSPDGLTQSGSEKLRQMISASVRAYQPGAETLEVRQRVVRDYLNSVPLSAVPGHGEVHGLAEGLRVWFGVDFARTNQLLASGPTDQQGLADKALALREVLSLVIAQRRPSHYLAK", "soluble on expression in E. coli": "not soluble"}, {"sequence": "MGSDKIHHHHHHMMKYIFRTFSCGSGDCIFLILKSGDYTLNLMIDCGKYTEEIDEYVRNSLKNKIDYLIVTHIDNDHINGLIKMLTQNPDLIIEHIIYNCYQRVINNEQPWTEQMKANVDRLYDQLPIVIDMLSQNVNEEKALTLAECILRKEEWRRAWQREYITDESPAIQLANNMGRIIFLSPSQVALDRLDVKYRKLFWQQLYKQKTEDYDGEETIYEALMRIAQLEEGEETKDENVNDDTINEQILKRYASRPLSKMDDNNIASIAFIWEYQGHRILLMGDADPEQVSNAIEKVYKDETKPVIFDLIKVSHHGSAHSTSCGLMDVIDSERFFFTGGGKERPSLQTLGRIIIRPLPNGIAYRDIRYNRPNEILNKLANLSVDEKGSLHIRVNHNENGYEVSC", "soluble on expression in E. coli": "not soluble"}, {"sequence": "GHMASNVANDGERPSRVVELTDETFDSIVMDPEKDVFVLYYVPWSRHSVAAMRLWDDLSMSQSQKRNHLTFVAARIDGEKYPDVIERMRVSGFPTMRYYTRIDKQEPFEYSGQRYLSLVDSFVFQNT", "soluble on expression in E. coli": "soluble"}]}]}
